From article PMC4686657 come the findings set out here.

This data set concerns the target GST-E2f1 (UniProt Q01094). Kind of data set: EMSA. The note with it: increasing GST-E2f1, constant probe, EMSA: 20 mM HEPES, 10 mM KCl, 0.2 mM EDTA, 10% glycerol, 5 mM DTT (7 ul Binding Buffer D in 20 ul), 50 ng poly dI:dC, 0.15% NP-40, 1 ug BSA, 5 ug nuclear …. In general terms: In EMSA bound probe runs differently from free probe, usually more slowly.
Chain of UniProt Q01094 (Q01094 whole entry): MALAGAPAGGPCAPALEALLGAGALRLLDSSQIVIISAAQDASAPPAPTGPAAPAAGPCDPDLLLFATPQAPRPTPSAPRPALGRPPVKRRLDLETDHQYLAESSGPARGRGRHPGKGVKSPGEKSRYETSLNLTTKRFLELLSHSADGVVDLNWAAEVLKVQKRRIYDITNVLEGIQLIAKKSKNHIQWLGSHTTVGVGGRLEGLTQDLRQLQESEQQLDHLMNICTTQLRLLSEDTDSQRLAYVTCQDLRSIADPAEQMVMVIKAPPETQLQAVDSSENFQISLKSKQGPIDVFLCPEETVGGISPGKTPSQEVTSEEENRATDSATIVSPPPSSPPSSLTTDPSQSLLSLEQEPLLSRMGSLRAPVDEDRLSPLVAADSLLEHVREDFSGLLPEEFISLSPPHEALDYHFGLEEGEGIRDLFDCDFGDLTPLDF

As to “CAGGCGACAGCGGCGCGGAACGCAG (double strand) [Pfkl probe]”, the binding signal (reference (Pfkl T-stretch is 1.88-fold)) worked out at 1.
As for “CAGGCTTTTTCGGCGCGGAACGCAG (double strand) [Pfkl T-stretch probe]”, the binding signal (scale: fold signal vs Pfkl probe) came to 1.88.
